Experimental data taken from patent publication US20250144214A1 (US Dept. of Health and Human Services, published 2025).
Residue numbers refer to the chain shown, from its start.

B1: hCT3-1 (humanized CT3 antibody) (antibody, V domains shown)
VH: QVQLVQSGAEVKKPGASVKVSCKASRFTFTDYNIHWVRQAPGQGLEWIGYINPNNGDIFYKQKFNGRVTLTADKSTSTAYMELSSLTSEDTAVYYCVRSSNIRYTFDRFFDVWGQGTLVTVSS
VL: DVVMTQSPLSLPVTPGEPASISCRASSSVNYIYWYLQKPGQSPQLWIYYTSNLAPGVPDRFSGSGSGTDFTLKISRVEAEDVGVYYCQQFSSSPSTFGQGTKLEIK
B2: hCT3-2 (humanized CT3 antibody) (antibody, V domains shown)
VH: QVQLVQSGAEVKKPGASVKVSCKASRFTFTDYNIHWVRQAPGQRLEWIGYINPNNGDIFYKQKFNGRVTITRDTSASTAYMELSSLRSEDTAVYYCVRSSNIRYTFDRFFDVWGQGTLVTVS
VL: DVVMTQSPAFLSVTPGEKVTITCRASSSVNYIYWYQQKPDQAPKLWIYYTSNLAPGVPSRFSGSGSGTDFTFTISSLEAEDAATYYCQQFSSSPSTFGQGTKLEIK
B3: hCT3-3 (humanized CT3 antibody) (antibody, V domains shown)
VH: B2 VH with R44G, R67K, V68A, I70M, R72V, A76T, A79V
VL: DIQMTQSPSSLSASVGDRVTITCRASSSVNYIYWYQQKSGKAPKLWIYYTSNLAPGVPSRFSGSGSGTDFTLTISSLQPEDFATYYCQQFSSSPSTFGQGTKLEIK
B4: hCT3-4 (humanized CT3 antibody) (antibody, V domains shown)
VH: B2 VH
VL: EIVLTQSPATLSLSPGERATLSCRASSSVNYIYWYQQKPGQAPRLWIYYTSNLAPGIPARFSGSGSGTDFTLTISSLEPEDFAVYYCQQFSSSPSTFGQGTKLEIK
B5: CT3 antibody (parental murine GPC2-specific monoclonal antibody) (antibody, V domains shown)
VH: EVQLQQSGPELVKPGASVKMSCKASRFTFTDYNIHWVKQSPGKTLEWIGYINPNNGDIFYKQKFNGKATLTINKSSNTAYMELRSLTSEDSAVYYCVRSSNIRYTFDRFFDVWGTGTTVTVSS
VL: ENVLTQSPAIMSASLGEKVTMSCRASSSVNYIYWYQQKSDASPKLWIYYTSNLAPGVPARFSGSGSGNSYSLTISSMEGEDAATYYCQQFSSSPSTFGTGTKLELK
notes: also called parental CT3 antibody; murine antibody CT3

What follows are binders tested against T1, glypican-2 (GPC2), as used in the binding affinity test (UniProt Q8N158 24-553, limits assumed) (assay: sensorgrams, Response (nm) against Time (unit inferred), traces at 200, 100 and 50 nM; instrument and immobilised partner not stated).
T1 construct: It states neither the form of the antigen nor the assay
T1 sequence (looked up): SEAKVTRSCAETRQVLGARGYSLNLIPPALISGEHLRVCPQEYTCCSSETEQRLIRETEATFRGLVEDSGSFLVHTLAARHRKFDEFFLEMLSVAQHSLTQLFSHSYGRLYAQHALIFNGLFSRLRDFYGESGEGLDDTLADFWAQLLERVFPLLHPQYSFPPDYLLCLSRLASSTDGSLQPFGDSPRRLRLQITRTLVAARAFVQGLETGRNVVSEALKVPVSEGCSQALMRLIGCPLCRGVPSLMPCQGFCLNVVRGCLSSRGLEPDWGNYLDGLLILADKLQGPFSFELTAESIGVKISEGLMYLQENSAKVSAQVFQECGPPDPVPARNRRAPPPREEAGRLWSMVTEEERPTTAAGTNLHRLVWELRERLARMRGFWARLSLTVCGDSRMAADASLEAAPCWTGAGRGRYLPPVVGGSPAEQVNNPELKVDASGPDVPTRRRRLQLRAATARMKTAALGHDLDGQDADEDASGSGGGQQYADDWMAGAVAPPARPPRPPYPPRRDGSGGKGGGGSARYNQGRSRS

Row | Binder | Kd [nM]
1 | B1 | 4
2 | B2 | 3.6

Target: T1, glypican-2 (GPC2), as used in the …
Assay: as above
Remark: another data set of the same source

Row | Binder | Kd [nM]
3 | B3 | 2.5
4 | B4 | 3.3

These binders were tested against T1, glypican-2 (GPC2), as used in the … (assay: binding affinity for GPC2; method not stated (graphs in FIGS. 7A-7B)).

Row | Binder | binding affinity [nM]
5 | B1 | 4
6 | B2 | 3.6
7 | B3 | 2.5
8 | B4 | 3.3
9 | B5 | 2.2
